Measured values reported in the Human Domainome abundance scans (Beltran et al. 2025).
± gives the uncertainty stated by the source.

B1: Glucocorticoid receptor, residues 419 to 494; numbered along this chain, P04150 (parent)
chain: KLCLVCSDEASGCHYGVLTCGSCKVFFKRAVEGQHNYLCAGRNDCIIDKIRRKNCPACRYRKCLQAGMNLEARKTK

Variants of: B1
Test: abundance fitness (aPCA) (normalised: wild type 0, dead -1); higher = more abundant; growth selection in yeast, the domain comes from the species named
Settings: Homo sapiens

| Variant | abundance fitness |
| --- | --- |
| K74R | 0.054 ± 0.037 |
| K74D | 0.19 ± 0.073 |
| T19H | -0.311 ± 0.1 |
| T19Y | -0.697 ± 0.22 |
| T19Q | -0.559 ± 0.067 |
| T19E | -1.03 ± 0.19 |
| T19G | -0.393 ± 0.044 |
| T19P | -0.791 ± 0.13 |
| R61H | -0.079 ± 0.077 |
| R61V | 0.064 ± 0.035 |
| R61E | 0.026 ± 0.046 |
| R61L | 0 ± 0.039 |
| R61A | 0.054 ± 0.033 |
| C3Y | -0.764 ± 0.24 |
| C3T | -0.818 ± 0.22 |
| C3H | -0.737 ± 0.44 |
| C3M | -0.763 ± 0.15 |
| C3I | -0.684 ± 0.2 |
| A30T | -0.064 ± 0.05 |
| A30P | -0.907 ± 0.19 |
| L38A | 0.01 ± 0.034 |
| L38K | 0.033 ± 0.047 |
| L38S | -0.035 ± 0.041 |
| L64S | -0.082 ± 0.04 |

| Variant | abundance fitness |
| --- | --- |
| L64E | 0.016 ± 0.039 |
| L64K | -0.01 ± 0.045 |
| L64F | -0.107 ± 0.069 |
| R42I | -0.062 ± 0.089 |
| R42K | 0.106 ± 0.053 |
| R42W | -0.077 ± 0.039 |
| R42G | 0.009 ± 0.027 |
| R42D | 0.06 ± 0.059 |
| R42Y | -0.065 ± 0.17 |
| R42H | -0.011 ± 0.074 |
| H35K | -0.002 ± 0.054 |
| H35R | -0.044 ± 0.033 |
| H35M | 0.018 ± 0.047 |
| H35D | 0.005 ± 0.066 |
| E71S | -0.016 ± 0.041 |
| E71F | -0.072 ± 0.059 |
| E71Q | -0.051 ± 0.063 |
| E71T | -0.076 ± 0.053 |
| E71V | -0.01 ± 0.038 |
| D44P | -0.323 ± 0.057 |
| D44T | -0.023 ± 0.052 |
| D44C | 0.009 ± 0.089 |
| D44Y | -0.37 ± 0.13 |
| I47K | -0.267 ± 0.064 |

| Variant | abundance fitness |
| --- | --- |
| I47N | -0.164 ± 0.1 |
| I47L | -0.135 ± 0.034 |
| I47F | -0.449 ± 0.11 |
| I47V | 0.015 ± 0.033 |
| I47C | -0.438 ± 0.089 |
| K24D | -0.006 ± 0.087 |
| K24F | -0.092 ± 0.066 |
| K24L | -0.134 ± 0.045 |
| K24T | -0.096 ± 0.059 |
| K24W | -0.037 ± 0.089 |
| K24C | 0.011 ± 0.065 |
| K24E | 0.011 ± 0.079 |
| K24Y | 0.017 ± 0.06 |
| F27C | -0.518 ± 0.11 |
| F27N | -0.722 ± 0.25 |
| F27Q | -0.896 ± 0.14 |
| F27K | -0.951 ± 0.2 |
| V5H | -0.848 ± 0.33 |
| V5M | -0.681 ± 0.095 |
| V5C | -0.749 ± 0.15 |
| V5S | -1.03 ± 0.17 |
| V5Y | -0.631 ± 0.19 |
| F26Y | -0.36 ± 0.12 |
| F26R | -0.758 ± 0.071 |

| Variant | abundance fitness |
| --- | --- |
| F26P | -0.872 ± 0.15 |
| L2C | -0.068 ± 0.05 |
| L2K | 0.063 ± 0.045 |
| L2Q | 0.029 ± 0.062 |
| L2G | -0.017 ± 0.033 |
| L2S | -0.023 ± 0.037 |
| N43L | -0.123 ± 0.033 |
| N43E | 0.011 ± 0.044 |
| N43S | -0.044 ± 0.036 |
| N43D | -0.008 ± 0.057 |
| N43P | -0.575 ± 0.075 |
| A40D | -0.136 ± 0.085 |
| A40W | -0.079 ± 0.041 |
| A40N | -0.024 ± 0.075 |
| A40V | 0.019 ± 0.034 |
| R51I | -0.134 ± 0.1 |
| R51T | -0.016 ± 0.043 |
| R51G | 0.009 ± 0.031 |
| S22D | 0.136 ± 0.3 |
| S22F | 0.043 ± 0.11 |
| C58E | -0.633 ± 0.091 |
| C58Q | -0.768 ± 0.13 |
| C58F | -1 ± 0.3 |
| V31S | 0.037 ± 0.037 |

| Variant | abundance fitness |
| --- | --- |
| V31W | -0.07 ± 0.044 |
| V31I | 0.037 ± 0.051 |
| V31Q | -0.017 ± 0.048 |
| V31E | -0.052 ± 0.046 |
| V31R | -0.007 ± 0.028 |
| V31K | -0.078 ± 0.056 |
| G41I | -0.101 ± 0.061 |
| G41T | -0.04 ± 0.046 |
| G41Y | -0.123 ± 0.085 |
| G41A | -0.016 ± 0.036 |
| V17S | -0.172 ± 0.052 |
| V17F | -0.355 ± 0.084 |
| V17M | -0.379 ± 0.35 |
| V17W | -0.641 ± 0.084 |
| V17E | -0.389 ± 0.062 |
| V17C | 0.057 ± 0.062 |
| K76L | -0.001 ± 0.048 |
| K76P | 0.004 ± 0.073 |
| A10I | -0.15 ± 0.075 |
| A10G | -0.122 ± 0.042 |
| A10Y | -0.272 ± 0.08 |
| A10V | -0.305 ± 0.047 |
| A10C | -0.147 ± 0.056 |
| A10T | -0.161 ± 0.048 |

| Variant | abundance fitness |
| --- | --- |
| A10R | -0.453 ± 0.042 |
| A10W | -0.625 ± 0.074 |
| V25S | -0.017 ± 0.05 |
| V25I | 0.021 ± 0.075 |
| S7E | 0.012 ± 0.042 |
| S7F | -0.045 ± 0.076 |
| S7V | -0.374 ± 0.046 |
| S7G | 0.012 ± 0.034 |
| D8I | -0.68 ± 0.2 |
| D8R | -0.237 ± 0.036 |
| D8C | -0.105 ± 0.072 |
| N69E | -0.02 ± 0.043 |
| N69Q | -0.071 ± 0.053 |
| N69K | 0.001 ± 0.048 |
| N69G | -0.047 ± 0.039 |
| N69Y | -0.105 ± 0.066 |
| N69R | 0.01 ± 0.033 |
| N69W | -0.061 ± 0.043 |
| K1W | -0.301 ± 0.068 |
| K1I | -0.143 ± 0.1 |
| K1Q | -0.293 ± 0.064 |
| K1M | 0.046 ± 0.046 |
| A57P | -0.247 ± 0.053 |
| A57F | -0.457 ± 0.12 |

| Variant | abundance fitness |
| --- | --- |
| A57Q | -0.195 ± 0.05 |
| A57G | -0.071 ± 0.03 |
| A57I | -0.614 ± 0.14 |
| A57C | -0.039 ± 0.06 |
| A66W | -0.227 ± 0.05 |
| A66V | 0.021 ± 0.033 |
| A66C | -0.037 ± 0.048 |
| A66I | -0.242 ± 0.073 |
| A66L | -0.024 ± 0.037 |
| A66P | -0.859 ± 0.14 |
| A66T | 0.029 ± 0.047 |
| A66N | -0.02 ± 0.075 |
| K62N | -0.031 ± 0.081 |
| G67Y | -0.304 ± 0.16 |
| G67R | -0.491 ± 0.055 |
| G67A | -0.542 ± 0.067 |
| G67K | -0.308 ± 0.082 |
| G67C | -0.534 ± 0.17 |
| G67V | -0.583 ± 0.076 |
| C63K | -0.779 ± 0.14 |
| C63V | -0.863 ± 0.088 |
| C63G | -0.06 ± 0.031 |
| C63E | -0.871 ± 0.11 |
